Target: the molecule itself
Test: cryo-EM structure

B1: mouse ClC-3b I607T mutant (natural protein, UniProt P51791 1-818, looked up)
chain: MESEQLFHRGYYRNSYNSITSASSDEELLDGAGAIMDFQTSEDDNLLDGDTAAGTHYTMTNGGSINSSTHLLDLLDEPIPGVGTYDDFHTIDWVREKCKDRERHRRINSKKKESAWEMTKSLYDAWSGWLVVTLTGLASGALAGLIDIAADWMTDLKEGICLSALWYNHEQCCWGSNETTFEERDKCPQWKTWAELIIGQAEGPGSYIMNYIMYIFWALSFAFLAVSLVKVFAPYACGSGIPEIKTILSGFIIRGYLGKWTLMIKTITLVLAVASGLSLGKEGPLVHVACCCGNIFSYLFPKYSTNEAKKREVLSAASAAGVSVAFGAPIGGVLFSLEEVSYYFPLKTLWRSFFAALVAAFVLRSINPFGNSRLVLFYVEYHTPWYLFELFPFILLGVFGGLWGAFFIRANIAWCRRRKSTKFGKYPVLEVIIVAAITAVIAFPNPYTRLNTSELIKELFTDCGPLESSSLCDYRNDMNASKIVDDIPDRPAGVGVYSAIWQLCLALIFKIIMTVFTFGIKVPSGLFIPSMAIGAIAGRIVGIAVEQLAYYHHDWFIFKEWCEVGADCITPGLYAMVGAAACLGGVTRMTVSLVVIVFELTGGLEYTVPLMAAVMTSKWVGDAFGREGIYEAHIRLNGYPFLDAKEEFTHTTLAADVMRPRRSDPPLAVLTQDNMTVDDIENMINETSYNGFPVIMSKESQRLVGFALRRDLTIAIESARKKQEGIVGSSRVCFAQHTPSLPAESPRPLKLRSILDMSPFTVTDHTPMEIVVDIFRKLGLRQCLVTHNGIVLGIITKKDILRHMAQTANQDPASIMFN
- binding result: binds
